Experimental data as given in patent publication US20240376639A1 (ELASMOGEN, published 2024).

B1: 78-V3 (VNAR)
VNAR: TRVDQSPSSLSASVGDRVTITCVLTDTNYSLYATSWYQQKPGKTDWERMSIGGRYVESVNKGAKSFTLTISSLQPEDFATYYCRAVWFPYFISDMWDVYGGGTKVEIK
notes: Humanised VNAR (soloMER), poly-histidine tagged, expressed in E. coli; also called soloMER 78 variant V3
B2: 78-V4 (VNAR)
VNAR: TRVDQSPSSLSASVGDRVTITCVLTDTNYSLYATSWFRKNPGTTDWERMSIGGRFSGSGSKGAKSFTLTISSLQPEDFATYYCRAVWFPYFISDMWDVYGGGTKVEIK
notes: Humanised VNAR (soloMER), poly-histidine tagged, expressed in E. coli; also called soloMER 78 variant V4
B3: 78-V5 (VNAR)
VNAR: TRVDQSPSSLSASVGDRVTITCVLTDTNYSLYATSWYQQKPGKTDWERMSIGGRFSGSGSKGAKSFTLTISSLQPEDFATYYCRAVWFPYFISDMWDVYGGGTKVEIK
notes: Humanised VNAR (soloMER), poly-histidine tagged, expressed in E. coli; also called soloMER 78 variant V5
B4: E4 WT (VNAR)
VNAR: ASVNQTPRTATKETGESLTINCVLTDTKYLYSTSWFRKNPGTTDWERMSIGGRYVESVNKGAKSFSLRIKDLTVADSATYICRAWTSFEEQVKDVYGAGTVLTVN
notes: also called pre-humanised parental clone E4 WT; Wt DLL4 VNAR
B5: E4V2Ee8 (VNAR)
VNAR: ASVNQSPSSLSASVGDRVTITCVLTGASYWYSTSWFRKNPGTTDEESMSNGGRYVESVNKRPMSFTLTISSLQPEDFATYYCRAWTSFEEQVKDVYGGGTKVEIK
notes: Clone from the E4-V2 humanised library
B6: E4V2B9 (VNAR)
VNAR: ASVNQSPSSLSASVGDRVTITCVLTGTGYWYSTSWFRKNPGTSNEDRIIIGGRYVESVNKGTKSFTLTISSLQPEDFATYYCRAWTSFEEQVKDVYGGGTKVEIK
notes: as for B5
B7: E4V2Cc8 (VNAR)
VNAR: ASVNQSPSSLSASVGDRVTITCVLTSAGYLYATSWFRKNPGTSDKESMIIGRRYVESVNNRSMSFTLTISSLQPEDFATYYCRAWTSFEEQVKDVYGGGTKVEIK
notes: as for B5
B8: E4V2Cc9 (VNAR)
VNAR: ASVNQSPSSLSASVGDRVTITCVLTGTEYLYSTSWFRKNPGTPNEDRMINGGRYVESVNKGTMSFTLTISSLQPEDFATYYCRAWTSFEEQVKDVYGGGTKVEIK
notes: as for B5
B9: E4V2D10 (VNAR)
VNAR: ASVNQSPSSLSASVGDRVTITCVLTGAGYWFATSWFRKNPGTSDKESISNSGRYVESVNKRSMSFTLTISSLQPEDFATYYCRAWTSFEEQVKDVYGGGTKVEIK
notes: as for B5
B10: E4V2Ee6 (VNAR)
VNAR: ASVNQSPSSLSASVGDRVTITCVLTDTRYLYATSWFRKNPGTTNKESISNGGRYVESVNKRSMSFTLTISSLQPEDFATYYCRAWTSFEEQVKDVYGGGTKVEIK
notes: as for B5
B11: E4V2Gg11 (VNAR)
VNAR: ASVNQSPSSLSASVGDRVTITCVLTGTRYWFSTSWFRKNPGTTDEDSISNGGRYVESVNNGSMSFTLTISSLQPEDFATYYCRAWTSFEEQVKDVYGGGTKVEIK
notes: as for B5
B12: E4V2F3 (VNAR)
VNAR: ASVNQSPSSLSASVGDRVTITCVLTDTNYWYSTSWFRKNPGTTNEDRIIISGRYVESVNNGPKSFTLTISSLQPEDFATYYCRAWTSFEEQVKDVYGGGTKVEIK
notes: as for B5
B13: 78WT (VNAR)
VNAR: TRVDQTPRTATKETGESLTINCVLTDTNYSLYATSWFRKNPGTTDWERMSIGGRYVESVNKGAKSFSLRIKDLTVADSATYICRAVWFPYFISDMWDVYGAGTVLTVN
notes: Parental non-humanised VNAR 78; also called native (WT) anti-DLL4 VNAR 78
B14: P3A1 WT dimer HisMyc (other)
VNAR 1: TRVDQTPRTATKETGESLTINCVLTDTSYGLYSTSWFRKNPGTTDWERMSIGGRYVESVNKGAKSFSLRIKDLTVADSATYYCKAREARHPWLRQWYDGAGTVLTVN
VNAR 2: TRVDQTPRTATKETGESLTINCVLTDTSYGLYSTSWFRKNPGTTDWERMSIGGRYVESVNKGAKSFSLRIKDLTVADSATYYCKAREARHPWLRQWYDGAGTVLTVN
modifications: In the real molecule the two VNAR copies form one polypeptide, joined by an unprinted short peptide linker and carrying a HisMyc tag. They are given here as two separate chains because the linker letters are unknown.
notes: VNAR dimer in one chain; also called parental WT clone P3A1; WT non-humanised P3A1 clone; not shown: The short peptide linker joining the two P3A1 copies and the HisMyc tag
B15: P3A1 V1 dimer HisMyc (other)
VNAR 1: TRVDQSPSSLSASVGDRVTITCVLTDTSYGLYSTSWFRKNPGTTDWERMSIGGRYVESVNKGAKSFTLTISSLQPEDFATYYCKAREARHPWLRQWYDGAGTKVEIK
VNAR 2: TRVDQSPSSLSASVGDRVTITCVLTDTSYGLYSTSWFRKNPGTTDWERMSIGGRYVESVNKGAKSFTLTISSLQPEDFATYYCKAREARHPWLRQWYDGAGTKVEIK
modifications: In the real molecule the two VNAR copies form one polypeptide, joined by an unprinted short peptide linker and carrying a HisMyc tag. They are given here as two separate chains because the linker letters are unknown.
notes: 2x P3A1 V1 joined with a short peptide linker, with a HisMyc tag; expressed in bacteria; not shown: The short peptide linker joining the two P3A1 V1 copies and the HisMyc tag
B16: D3 V2 (VNAR)
VNAR: ASVNQSPSSLSASVGDRVTITCVLTDTSYGLYSTSWFRKNPGTTDWERMSIGGRYVESVNKRAKSFTLTISSLQPEDFATYYCKAQSGMAISTGSGHGYNWYDGAGTKVEIK
notes: Humanised VNAR (soloMER)
B17: D3 V4 (VNAR)
VNAR: ASVNQSPSSLSASVGDRVTITCVLTDTSYGLYSTSWYQQKPGTTDWERMSIGGRYVESVNKRAKSFTLTISSLQPEDFATYYCKAQSGMAISTGSGHGYNWYDGAGTKVEIK
notes: Humanised VNAR (soloMER)
B18: D3 V5 (VNAR)
VNAR: ASVNQSPSSLSASVGDRVTITCVLTDTSYGLYSTSWYQQKPGTTDWERMSIGGRFSGSGSKRAKSFTLTISSLQPEDFATYYCKAQSGMAISTGSGHGYNWYDGAGTKVEIK
notes: Humanised VNAR (soloMER)

Columns and labels:
hDLL4-Fc = hDLL4-Fc (human, UniProt Q9NR61 27-524, limits assumed); test: direct binding ELISA on 1 µg/mL coated hDLL4-Fc, protein input unquantified, detection with anti-poly-histidine-HRP
Sequence of hDLL4-Fc (Q9NR61 27-524 limits assumed): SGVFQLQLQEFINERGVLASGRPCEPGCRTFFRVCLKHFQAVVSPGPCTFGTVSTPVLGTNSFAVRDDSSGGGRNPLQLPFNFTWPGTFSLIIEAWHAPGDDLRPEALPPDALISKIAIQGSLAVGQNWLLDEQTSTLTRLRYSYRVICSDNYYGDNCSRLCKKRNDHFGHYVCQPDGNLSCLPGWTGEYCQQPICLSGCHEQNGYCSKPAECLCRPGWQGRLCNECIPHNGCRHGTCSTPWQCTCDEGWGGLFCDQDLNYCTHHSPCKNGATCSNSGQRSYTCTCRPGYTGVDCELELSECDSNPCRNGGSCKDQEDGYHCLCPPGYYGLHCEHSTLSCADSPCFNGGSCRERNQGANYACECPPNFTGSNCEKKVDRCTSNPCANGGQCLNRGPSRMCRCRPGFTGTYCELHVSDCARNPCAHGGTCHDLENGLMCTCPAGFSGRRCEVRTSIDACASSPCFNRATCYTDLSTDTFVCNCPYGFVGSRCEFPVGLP

human DLL4 = biological target: T1, human DLL4 (human, UniProt Q9NR61 27-524, limits assumed); test: monoclonal phage ELISA on hDLL4, with HSA as control antigen, OD450
T1 construct: Antigen of the monoclonal phage ELISA; also called hDLL4
T1 sequence (Q9NR61 27-524 limits assumed): as above

Human Serum Albumin = biological target: T2, Human Serum Albumin (human, UniProt P02768 25-609); test: monoclonal phage ELISA, HSA as control antigen, OD450
T2 construct: Non-target control antigen in the ELISAs; also called HSA

human ROR1 [1] = biological target: T3, human ROR1 (human, UniProt Q01973 30-403, limits assumed); test: BIAcore (SPR)
T3 construct: The general ELISA protocol coats hROR1-Fc; also called hROR1; huROR1
T3 sequence (Q01973 30-403 limits assumed): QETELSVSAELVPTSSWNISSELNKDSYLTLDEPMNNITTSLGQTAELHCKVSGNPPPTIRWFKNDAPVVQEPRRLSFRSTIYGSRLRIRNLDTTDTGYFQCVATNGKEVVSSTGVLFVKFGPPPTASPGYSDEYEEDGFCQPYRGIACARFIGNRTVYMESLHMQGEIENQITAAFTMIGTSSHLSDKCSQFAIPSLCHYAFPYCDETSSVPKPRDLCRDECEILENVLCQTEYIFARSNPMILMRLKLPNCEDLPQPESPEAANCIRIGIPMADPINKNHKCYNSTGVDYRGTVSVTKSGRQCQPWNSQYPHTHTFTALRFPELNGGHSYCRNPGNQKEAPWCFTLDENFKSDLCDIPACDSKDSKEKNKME

human ROR1 [2] = biological target: T3, human ROR1; test: BLI against hROR1
human ROR1 [3] = biological target: T3, human ROR1; test: kinetics against hROR1; method not named in the table (kdis heading as in the BLI table)

Row | Binder | binding result (human DLL4) | binding result (Human Serum Albumin) | other results
1 | B1 |  |  | binding result (hDLL4-Fc): binds
2 | B2 |  |  | binding result (hDLL4-Fc): binds
3 | B3 |  |  | binding result (hDLL4-Fc): binds
4 | B4 | binds | no binding | binding result (hDLL4-Fc): binds
5 | B5 | binds | no binding | 
6 | B6 | binds |  | 
7 | B7 | binds | no binding | 
8 | B8 | binds | no binding | 
9 | B9 | binds | no binding | 
10 | B10 | binds | no binding | 
11 | B11 | binds | no binding | 
12 | B12 | binds | no binding | 
13 | B13 |  |  | binding result (hDLL4-Fc): binds
14 | B14 |  |  | Kd (human ROR1 [1]): 0.302 nM
15 | B15 |  |  | Kd (human ROR1 [1]): 0.179 nM
16 | B16 |  |  | Kd (human ROR1 [2]): 18.9 nM; kon (human ROR1 [2]): 1.85e+06 M⁻¹ s⁻¹; Kd (human ROR1 [3]): 15.6 nM; koff (human ROR1 [3]): 0.0238 s⁻¹; kon (human ROR1 [3]): 1.52e+06 M⁻¹ s⁻¹
17 | B17 |  |  | Kd (human ROR1 [2]): 58.5 nM; kon (human ROR1 [2]): 1.38e+06 M⁻¹ s⁻¹
18 | B18 |  |  | Kd (human ROR1 [2]): 36.2 nM
